Assays:
[1] = target: TtSlyD-FKBP-B (Thermus thermophilus); assay: SPR (Biacore), captured antibody, TtSlyD_B as analyte 0-300 nM, Langmuir fit
[2] = target: TtSlyD-FKBP-B (Thermus thermophilus); assay: SPR (Biacore), 25 C; antibody captured on goat anti-rabbit Fc-gamma, TtSlyD-B as analyte; apparent affinity, kd set to the instrument limit
[3] = target: TtSlyD-FKBP-A (Thermus thermophilus); assay: SPR (Biacore), 25 C; antibody captured on goat anti-rabbit Fc-gamma, TtSlyD-A as analyte; apparent affinity, kd set to the instrument limit
TtSlyD-FKBP-A (Thermus thermophilus), sequence (main, as listed by the source): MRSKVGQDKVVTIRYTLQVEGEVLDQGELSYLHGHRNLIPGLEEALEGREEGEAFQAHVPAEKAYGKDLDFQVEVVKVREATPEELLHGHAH

[4] = target: TtSlyD-FKBP-A (Thermus thermophilus); assay: SPR (Biacore), captured antibody, TtSlyD_A as analyte 0-300 nM, Langmuir fit
[5] = target: TtSlyD-FKBP-A (Thermus thermophilus); assay: SPR (Biacore), 25 C; antibody (223 RU) captured on goat anti-rabbit Fc-gamma, TtSlyD-A as analyte; Langmuir fit
[6] = target: TtSlyD-FKBP-B (Thermus thermophilus); assay: SPR (Biacore), 25 C; antibody (212 RU) captured on goat anti-rabbit Fc-gamma, TtSlyD-B as analyte; Langmuir fit
[7] = target: TtSlyD-FKBP-A (Thermus thermophilus); assay: SPR (Biacore), 25 C; antibody captured on goat anti-rabbit Fc-gamma, TtSlyD-A as analyte; kd set to the instrument limit of 1e-05 1/s
[8] = target: TtSlyD-FKBP-B (Thermus thermophilus); assay: SPR (Biacore B3000), antibody captured by GAR-Fcγ, scaffold in solution, 25° C.; dissociation beyond instrument limit
[9] = target: TtSlyD-FKBP-A (Thermus thermophilus); assay: as above
[10] = target: TtSlyD-FKBP-B (Thermus thermophilus); assay: SPR (Biacore), 25 C; antibody captured on goat anti-rabbit Fc-gamma, TtSlyD-B as analyte; kd set to the instrument limit of 1e-05 1/s
[11] = target: TtSlyD-FKBP clone 3 F12 (Thermus thermophilus); assay: SPR (Biacore), 25 C; 1268 RU 0712pS4D5 captured on goat anti-rabbit antibody, scaffold 3F12 (18 kDa) captured by it
TtSlyD-FKBP clone 3 F12 (Thermus thermophilus), sequence (main, as listed by the source): as above

[12] = target: TtSlyD-FKBP-B (Thermus thermophilus); assay: SPR (Biacore), 25 C; antibody (89 RU) captured on goat anti-rabbit Fc-gamma, TtSlyD-B as analyte; Langmuir fit
[13] = target: TtSlyD-FKBP-A (Thermus thermophilus); assay: SPR (Biacore), 25 C; antibody (92 RU) captured on goat anti-rabbit Fc-gamma, TtSlyD-A as analyte; Langmuir fit
[14] = target: TtSlyD-FKBP clone 3 C1 (Thermus thermophilus); assay: SPR (Biacore), 25 C; 1253 RU 0712pS4D5 captured on goat anti-rabbit antibody, scaffold 3C1 (18 kDa) captured by it
TtSlyD-FKBP clone 3 C1 (Thermus thermophilus), sequence (main, as listed by the source): as above

[15] = target: TtSlyD-FKBP clone 5F8 (Thermus thermophilus); assay: SPR (Biacore), 25 C; 1141 RU 0712pS4D5 captured on goat anti-rabbit antibody, scaffold 5F8 (18 kDa) captured by it
TtSlyD-FKBP clone 5F8 (Thermus thermophilus), sequence (main, as listed by the source): as above

TtSlyD-FKBP-B (Thermus thermophilus), sequence (main, as listed by the source): as above

Kd [1] [nM]	MR (Molar Ratio) [1]	koff [1] [s⁻¹]	kon [1] [M⁻¹ s⁻¹]	Kd [2] [nM]	Kd [3] [nM]	Kd [4] [nM]	MR (Molar Ratio) [4]	koff [4] [s⁻¹]	kon [4] [M⁻¹ s⁻¹]	koff [7] [s⁻¹]	koff [8] [s⁻¹]	koff [9] [s⁻¹]	koff [10] [s⁻¹]	Binder	further results
0.023	1.4	< 1e-05	428000	0.0234	0.00787	0.008	1.2	< 1e-05	1.27e+06	1e-05	< 1e-05	< 1e-05	1e-05	RabMab 0612pS3A8 (antibody, V domains shown) VH: CQSVEESGGRLVTPGTPLTLTCTVSGFSLSSNAISWVRQAPGKGLEWIGIINNIGSTWYASWAKGRFTISKASSTTVDLKMTSLTTEDTATYFCARIVVNYNLGPYNLWGPGTLVTVSS VL: AFELTQTPSSVEAAVGGTVTIKCQATENIGNALAWYQQKPGQPPKLLIYRASTLASGVPSRFKGSGSGTDFTLTISDLECADAATYYCQSYYDIYTYVFGGGTEL	MR (Molar Ratio) [5]: 1.2; kon [5]: 1.27e+06 M⁻¹ s⁻¹; MR (Molar Ratio) [6]: 1.4; kon [6]: 428000 M⁻¹ s⁻¹
0.037	1.9	< 1e-05	271000	0.0369	0.0299	0.03	1.7	< 1e-05	335000	1e-05	< 1e-05	< 1e-05	1e-05	RabMab 0712pS4D3 (antibody, V domains shown) VH: CQSLEESGGRLVKPGGSLTLTCTVSGFSLSSYAMIWVRQAPGKGLEWIGVISSLGITYYANWAKGRFTISKASTTVDLKIASPTIGDTATYFCARGFFAGGSNYYPLWGPGTLVTVSS VL: CQASETIINWCSWYQQKPGQPPKLLIYKASNLESGVPSRFKGSGSGTEFTLTISDLECADAATYYCQQGYGYRDLENPFGGGTEVVVKG	MR (Molar Ratio) [11]: 2; scaffold (RU) [11]: 286 RU; MR (Molar Ratio) [12]: 1.9; kon [12]: 271000 M⁻¹ s⁻¹; MR (Molar Ratio) [13]: 1.7; kon [13]: 335000 M⁻¹ s⁻¹; MR (Molar Ratio) [14]: 2; scaffold (RU) [14]: 267 RU; MR (Molar Ratio) [15]: 2; scaffold (RU) [15]: 254 RU

— patent US20160237144A1
